Data as given in the supplement of paper PMC7125110.
± gives the standard error. This sample holds only a part of the variants without activity.

B1: glmS ribozyme (parent)
chain: AUAAAAGCGCCAGAACUACAGAAAUGUAGUUGACGAGGAGGAGGUUUAUCGAAUUUUCGGCGGAUGCCUCCAAA

Tests used:
Settings in all cases: with glucosamine-6-phosphate
glucosamine-6-phosphate [1] = variants of: B1; assay: self-cleavage kobs at 40 uM GlcN6P; higher = faster cleavage; RNA array
In short: (§1)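 Barcoded ribozyme variants were transcribed in situ on sequenced MiSeq chips by E. coli RNA polymerase. At 37 °C, a hybridised Cy3 probe tracked them while glucosamine-6-phosphate (40 μM to 10 mM) in HEPES/KCl/Mg(OAc)2 buffer flowed in and tiles were imaged over ~14 h. Per-tile medians of signals normalised to baseline and to non-cleaving reference variants were fit to one- or two-exponential decays, giving kobs. kcat and KM came from weighted Michaelis–Menten fits across concentrations.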

glucosamine-6-phosphate [2] = variants of: B1; assay: self-cleavage kobs at 640 uM GlcN6P; higher = faster cleavage; RNA array
In short: as §1

glucosamine-6-phosphate [3] = variants of: B1; assay: self-cleavage kobs at 2500 uM GlcN6P; higher = faster cleavage; RNA array
In short: as §1

glucosamine-6-phosphate [4] = variants of: B1; assay: self-cleavage kobs at 10000 uM GlcN6P; higher = faster cleavage; RNA array
In short: as §1

glucosamine-6-phosphate [5] = variants of: B1; assay: self-cleavage kobs at 160 uM GlcN6P; higher = faster cleavage; RNA array
In short: as §1

G32C U69G
self-cleavage kobs at 40 uM GlcN6P (glucosamine-6-phosphate [1]): 0.000189 ± 3.1e-05 s⁻¹
self-cleavage kobs at 640 uM GlcN6P (glucosamine-6-phosphate [2]): 0.000383 ± 8e-05 s⁻¹
self-cleavage kobs at 2500 uM GlcN6P (glucosamine-6-phosphate [3]): 0.000111 ± 2.5e-05 s⁻¹
self-cleavage kobs at 10000 uM GlcN6P (glucosamine-6-phosphate [4]): 9.57e-05 ± 1.1e-05 s⁻¹

A12G G29U G44A G63A
self-cleavage kobs at 40 uM GlcN6P (glucosamine-6-phosphate [1]): < 1e-05 s⁻¹
self-cleavage kobs at 10000 uM GlcN6P (glucosamine-6-phosphate [4]): < 1e-05 s⁻¹

A14U G40A G51U
self-cleavage kobs at 40 uM GlcN6P (glucosamine-6-phosphate [1]): < 1e-05 s⁻¹

G7U G41U U46A G62U
self-cleavage kobs at 40 uM GlcN6P (glucosamine-6-phosphate [1]): < 1e-05 s⁻¹
self-cleavage kobs at 640 uM GlcN6P (glucosamine-6-phosphate [2]): < 1e-05 s⁻¹
self-cleavage kobs at 2500 uM GlcN6P (glucosamine-6-phosphate [3]): < 1e-05 s⁻¹
self-cleavage kobs at 10000 uM GlcN6P (glucosamine-6-phosphate [4]): < 1e-05 s⁻¹

G9C A42G
self-cleavage kobs at 40 uM GlcN6P (glucosamine-6-phosphate [1]): < 1e-05 s⁻¹
self-cleavage kobs at 160 uM GlcN6P (glucosamine-6-phosphate [5]): < 1e-05 s⁻¹
self-cleavage kobs at 2500 uM GlcN6P (glucosamine-6-phosphate [3]): < 1e-05 s⁻¹
self-cleavage kobs at 10000 uM GlcN6P (glucosamine-6-phosphate [4]): < 1e-05 s⁻¹

A12C G43U C71A
self-cleavage kobs at 40 uM GlcN6P (glucosamine-6-phosphate [1]): < 1e-05 s⁻¹

C8A A53G
self-cleavage kobs at 40 uM GlcN6P (glucosamine-6-phosphate [1]): < 1e-05 s⁻¹
self-cleavage kobs at 160 uM GlcN6P (glucosamine-6-phosphate [5]): < 1e-05 s⁻¹
self-cleavage kobs at 640 uM GlcN6P (glucosamine-6-phosphate [2]): < 1e-05 s⁻¹
self-cleavage kobs at 2500 uM GlcN6P (glucosamine-6-phosphate [3]): < 1e-05 s⁻¹
self-cleavage kobs at 10000 uM GlcN6P (glucosamine-6-phosphate [4]): < 1e-05 s⁻¹

G35A A48C
self-cleavage kobs at 40 uM GlcN6P (glucosamine-6-phosphate [1]): < 1e-05 s⁻¹
self-cleavage kobs at 160 uM GlcN6P (glucosamine-6-phosphate [5]): < 1e-05 s⁻¹
self-cleavage kobs at 640 uM GlcN6P (glucosamine-6-phosphate [2]): < 1e-05 s⁻¹
self-cleavage kobs at 2500 uM GlcN6P (glucosamine-6-phosphate [3]): < 1e-05 s⁻¹
self-cleavage kobs at 10000 uM GlcN6P (glucosamine-6-phosphate [4]): < 1e-05 s⁻¹

A33U G40A G62C
self-cleavage kobs at 40 uM GlcN6P (glucosamine-6-phosphate [1]): < 1e-05 s⁻¹

G32A G41C
self-cleavage kobs at 40 uM GlcN6P (glucosamine-6-phosphate [1]): < 1e-05 s⁻¹
self-cleavage kobs at 640 uM GlcN6P (glucosamine-6-phosphate [2]): < 1e-05 s⁻¹
self-cleavage kobs at 10000 uM GlcN6P (glucosamine-6-phosphate [4]): 3.31e-05 ± 8.8e-06 s⁻¹

A14G G59A U65G G66A
self-cleavage kobs at 40 uM GlcN6P (glucosamine-6-phosphate [1]): < 1e-05 s⁻¹
self-cleavage kobs at 2500 uM GlcN6P (glucosamine-6-phosphate [3]): < 1e-05 s⁻¹

U2C A33G
self-cleavage kobs at 40 uM GlcN6P (glucosamine-6-phosphate [1]): < 1e-05 s⁻¹
self-cleavage kobs at 160 uM GlcN6P (glucosamine-6-phosphate [5]): < 1e-05 s⁻¹
self-cleavage kobs at 2500 uM GlcN6P (glucosamine-6-phosphate [3]): < 1e-05 s⁻¹
self-cleavage kobs at 10000 uM GlcN6P (glucosamine-6-phosphate [4]): < 1e-05 s⁻¹

C61U C71A
self-cleavage kobs at 40 uM GlcN6P (glucosamine-6-phosphate [1]): < 1e-05 s⁻¹
self-cleavage kobs at 160 uM GlcN6P (glucosamine-6-phosphate [5]): < 1e-05 s⁻¹
self-cleavage kobs at 640 uM GlcN6P (glucosamine-6-phosphate [2]): < 1e-05 s⁻¹
self-cleavage kobs at 2500 uM GlcN6P (glucosamine-6-phosphate [3]): < 1e-05 s⁻¹

A12U A15G A39G
self-cleavage kobs at 40 uM GlcN6P (glucosamine-6-phosphate [1]): 0.00105 ± 0.00021 s⁻¹
self-cleavage kobs at 10000 uM GlcN6P (glucosamine-6-phosphate [4]): 0.0688 ± 0.023 s⁻¹

G38C U56A
self-cleavage kobs at 40 uM GlcN6P (glucosamine-6-phosphate [1]): < 1e-05 s⁻¹
self-cleavage kobs at 2500 uM GlcN6P (glucosamine-6-phosphate [3]): < 1e-05 s⁻¹

A48U U56A C58A
self-cleavage kobs at 40 uM GlcN6P (glucosamine-6-phosphate [1]): < 1e-05 s⁻¹

A39C G43C U47C U49C A64U U65A
self-cleavage kobs at 40 uM GlcN6P (glucosamine-6-phosphate [1]): < 1e-05 s⁻¹

U31C A48G
self-cleavage kobs at 40 uM GlcN6P (glucosamine-6-phosphate [1]): < 1e-05 s⁻¹
self-cleavage kobs at 160 uM GlcN6P (glucosamine-6-phosphate [5]): < 1e-05 s⁻¹

C67G C70G
self-cleavage kobs at 40 uM GlcN6P (glucosamine-6-phosphate [1]): < 1e-05 s⁻¹
self-cleavage kobs at 10000 uM GlcN6P (glucosamine-6-phosphate [4]): < 1e-05 s⁻¹

G60C C67G
self-cleavage kobs at 40 uM GlcN6P (glucosamine-6-phosphate [1]): < 1e-05 s⁻¹
self-cleavage kobs at 160 uM GlcN6P (glucosamine-6-phosphate [5]): < 1e-05 s⁻¹
self-cleavage kobs at 640 uM GlcN6P (glucosamine-6-phosphate [2]): < 1e-05 s⁻¹
self-cleavage kobs at 10000 uM GlcN6P (glucosamine-6-phosphate [4]): < 1e-05 s⁻¹

G60C C67A
self-cleavage kobs at 40 uM GlcN6P (glucosamine-6-phosphate [1]): < 1e-05 s⁻¹
self-cleavage kobs at 2500 uM GlcN6P (glucosamine-6-phosphate [3]): < 1e-05 s⁻¹

U30G A33U G60A
self-cleavage kobs at 40 uM GlcN6P (glucosamine-6-phosphate [1]): < 1e-05 s⁻¹
self-cleavage kobs at 640 uM GlcN6P (glucosamine-6-phosphate [2]): < 1e-05 s⁻¹
self-cleavage kobs at 2500 uM GlcN6P (glucosamine-6-phosphate [3]): < 1e-05 s⁻¹

A6C A52U C67G
self-cleavage kobs at 40 uM GlcN6P (glucosamine-6-phosphate [1]): < 1e-05 s⁻¹

C10U A14G A52U G60U
self-cleavage kobs at 40 uM GlcN6P (glucosamine-6-phosphate [1]): < 1e-05 s⁻¹
self-cleavage kobs at 2500 uM GlcN6P (glucosamine-6-phosphate [3]): < 1e-05 s⁻¹
self-cleavage kobs at 10000 uM GlcN6P (glucosamine-6-phosphate [4]): < 1e-05 s⁻¹
